{"source": "paper PMC7241556"}
{"test_system": "T1, Rsp (Staphylococcus aureus NCTC8325), ORF:0cc986df", "T1 sequence": "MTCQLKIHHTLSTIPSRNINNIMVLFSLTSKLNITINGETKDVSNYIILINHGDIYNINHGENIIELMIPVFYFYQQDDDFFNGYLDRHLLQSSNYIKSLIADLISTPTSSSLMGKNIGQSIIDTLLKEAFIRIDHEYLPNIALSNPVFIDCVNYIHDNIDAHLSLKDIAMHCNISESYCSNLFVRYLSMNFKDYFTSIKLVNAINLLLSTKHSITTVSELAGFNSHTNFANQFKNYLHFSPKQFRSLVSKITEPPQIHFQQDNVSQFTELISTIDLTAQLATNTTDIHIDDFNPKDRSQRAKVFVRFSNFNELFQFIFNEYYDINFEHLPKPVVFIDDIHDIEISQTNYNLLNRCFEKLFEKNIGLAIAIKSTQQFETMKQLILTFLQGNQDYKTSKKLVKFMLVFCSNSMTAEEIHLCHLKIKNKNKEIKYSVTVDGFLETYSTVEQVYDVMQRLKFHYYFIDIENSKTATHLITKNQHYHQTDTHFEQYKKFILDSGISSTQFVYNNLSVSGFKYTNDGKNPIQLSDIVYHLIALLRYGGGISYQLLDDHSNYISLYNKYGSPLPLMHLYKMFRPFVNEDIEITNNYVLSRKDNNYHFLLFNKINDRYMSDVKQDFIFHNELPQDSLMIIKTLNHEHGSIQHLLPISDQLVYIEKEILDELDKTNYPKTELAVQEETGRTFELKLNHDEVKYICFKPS", "assay": "EMSA"}
{"sequence": "AACCTTCCATTGAAAACACTCCTTAAAATTTAAATTTGAAGATAACAAAAACGTGCGTAGCTTTTAAATCACCGAAATGTTATTCGCTT (double strand) [psmβ promoter 89 bp]", "binding": "no binding"}
{"sequence": "GCCAGCGATGATACCCATTAAGATTACCTCCTTTGCTTATGAGTTAACTTCATTGTACATAGTTATCTTGTGCGTAATTGATTTT (double strand) [psmα promoter 85 bp]", "binding": "no binding"}
{"sequence": "ACTTAAATACGAATTCAGGCAACTTAATTGTGTTAAATACAGTTTTGAATGCCTAACTGTATTTCTTTTCTCTTTAAAATACAGTTAAGTACATTATAAGATGTTGTGCGGATAAACAAACTAATTGCATCAAATTTATTTTAAAATAACAACAACAAAACGTTAAGCGAATAACATTTCGGTGATTTAAAAGCTACGCACGTTTTTGTTATCTTCAAATTTAAATTTTAAGGAGTGTTTTCAATGGAAGGTT (double strand) [psmβ promoter 253 bp]", "binding": "binds"}
{"sequence": "TAGTGTTGTTGTTACTGAGCTGACTATACGTGTTTTCATTTTCATCATCCTTCTATTTTTTAAAACGATTTGAGGAAACAATAATCAATATGTCAATTTAGAATATTGCA (double strand) [hla promoter 110 bp]", "binding": "no binding"}
{"sequence": "TGATTTTAAAAATTTCCATGTTTTACATTTAAATGATAGATTTCAATATATATTAGGCAGGAGAGAGAAATATGACATGCCAACTTAAA (double strand) [rsp promoter 89 bp]", "binding": "no binding"}
